Source: patent publication US9719067B2, “Generation of anterior foregut endoderm from pluripotent cells” (Mount Sinai School of Medicine, priority 2010, dated 2017)

How the values were obtained:
Assay type in all cases: cell-based, human
ventralized AFE = experiment: Induction of lung and parathyroid markers from ventralized AFE
Protocol: (§1) Mouse embryonic fibroblasts were depleted by a 24 h passage on Ma gel (Gibco) with Y-27632 (10 μM), and embryoid bodies were formed on low-adherence dishes (Costar). During embryoid body formation and differentiation, HES2 cells were reseeded at the same concentration (1:1 dilution), whereas HDF2 and HDF9 required a higher seeding (2:1-4:1 concentration) for efficient endoderm generation. Differentiations were performed in a medium of DMEM/F12 (Invitrogen) supplemented with N2 (Gibco), B27 (Gibco), ascorbic acid (50 μg/ml, Sigma). Glutamax (2 mM, Invitrogen), monothioglycerol ([…], Sigma). The following concentrations of factors were used for primitive streak formation, endoderm induction, anterior/pharyngeal endoderm induction, and subsequent anterior posterior and dorsoventral patterning: human BMP-4, 1 ng/ml and 10 ng/ml; human bFGF, 2.5 ng/ml; human activin A, 100 ng/ml; human Noggin, 200 ng/ml; Y-27632, 1 μM; SB-431542, 10 μM; human FGF10, 10 ng/ml; human FGF7, 10 ng/ml; murine EGF 20 ng/ml; and human WNT3a, 100 ng/ml. Hepatic conditions were as previously described 2 and contain BMP-4, 50 ng/ml; bFGF, 10 ng/ml; VEGF, 10 ng/ml; HGF, 10 ng/ml; TGFα, 20 ng/ml; dexamethasone, 40 ng/ml. All factors were purchased from R&D systems, except SB-431542 and Y-27632, which are from Tocris, and dexamethasone (Sigma). […]
(§2) Total RNA was extracted using Trizol (Invitrogen), phase lock tubes (5′ Prime) and the RNeasy kit (Qiagen). […] Amplified material was detected using SybrGreen (Invitrogen). Real-time quantitative PCR was performed on ABI 7900HT thermocycler (Applied Biosystems), with a 10-min step at 95° C. followed by 40 cycles of 95° C. for 15 s and 60° C. for 1 min. All experiments were done in triplicate with SYBR GreenER quantitative PCR SuperMix (Invitrogen). […] Absolute quantification was obtained in relation to a standard curve of genomic DNA dilution series. Quantified values for the gene of interest were normalized against input determined by the housekeeping genes GAPDH and β-ACTIN, qPCR for each culture well was performed in triplicate.

[1] = system: activin A-induced definitive endoderm (HES2); experiment: Anteriorization of activin A-induced definitive endoderm, factors added at day 5, marker mRNA by quantitative PCR at day 9
Protocol: as §1
as §2, with “triplicate. […]” for “triplicate.”

hES cell line HES2 = experiment: Activin A induction of definitive endoderm from hES cells (flow cytometry, cell number); settings: after 4 d of exposure to activin A
Protocol: hESC (HES2, National Institutes of Health code ES02 from ES Cell International; passages 25-33) were cultured on mouse embryonic fibroblasts plated at 8,000-12,000 cells/cm^2, A medium of DMEM/F12, 20% knockout serum replacement (Gibco), 0.1 mM β-mercaptoethanol (Sigma-Aldrich), and 20 ng/ml FGF-2 (R&D) was changed daily. Cells were passaged with trypsin, washed and replated at a dilution of 1:5 to 1:10. HDF2 and HDF9, hiPS cell lines, were cultured as hES2. hES and hiPS cultures were maintained in a 5% CO2/air environment, and hES differentiations were maintained in a 5% CO2/5% O2/90% N2 environment.
Mouse embryonic fibroblasts were depleted by a 24 h passage on Ma gel (Gibco) with Y-27632 (10 μM), and embryoid bodies were formed on low-adherence dishes (Costar). During embryoid body formation and differentiation, HES2 cells were reseeded at the same concentration (1:1 dilution), whereas HDF2 and HDF9 required a higher seeding (2:1-4:1 concentration) for efficient endoderm generation. Differentiations were performed in a medium of DMEM/F12 (Invitrogen) supplemented with N2 (Gibco), B27 (Gibco), ascorbic acid (50 μg/ml, Sigma). Glutamax (2 mM, Invitrogen), monothioglycerol (0.4 μM, Sigma). […]
Day 5 embryoid bodies or day 13 monolayer cultures were dissociated with trypsin/EDTA (2 min). […] Cells were analyzed on a LSRII. […]

[2] = retinoic acid added to the WKFBE cocktail
[3] = mRNA at day 9, factors added at day 5

CC1=C(/C=C/C(C)=C/C=C/C(C)=C/C(=O)O)C(C)(C)CCC1 [retinoic acid, all-trans retinoic acid]
expression of FOXP2, NKX2.1, GATA6 and FOXJ1 (ventralized AFE; [2]): increased
expression of the pharyngeal pouch marker PAX1 (ventralized AFE; [2]): decreased

B1: sFRP3: soluble Frizzled-related protein 3, WNT antagonist (protein, UniProt Q92765 33-325, looked up)
Secreted frizzled-related …: AACEPVRIPLCKSLPWNMTKMPNHLHHSTQANAILAIEQFEGLLGTHCSPDLLFFLCAMYAPICTIDFQHEPIKPCKSVCERARQGCEPILIKYRHSWPENLACEELPVYDRGVCISPEAIVTADGADFPMDSSNGNCRGASSERCKCKPIRATQKTYFRNNYNYVIRAKVKEIKTKCHDVTAVVEVKEILKSSLVNIPRDTVNLYTSSGCLCPPLNVNEEYIIMGYEDEERSRLLLVEGSIAEKWKDRLGKKVKRWDMKLRHLGLSKSDSSNSDSTQSQKSGRNSNPRQARN
induction of PAX9 and SOX2 when added to NOGGIN/SB-431542 ([1]; day 9, sFRP3 added with NOGGIN/SB-431542): detrimental
SOX2 expression [1, 3]: not sufficient

B2: WNT3a: human WNT3a, agonist of canonical Wnt signaling; 100 ng/ml (protein, UniProt P56704 19-352, looked up)
Protein Wnt-3a: SYPIWWSLAVGPQYSSLGSQPILCASIPGLVPKQLRFCRNYVEIMPSVAEGIKIGIQECQHQFRGRRWNCTTVHDSLAIFGPVLDKATRESAFVHAIASAGVAFAVTRSCAEGTAAICGCSSRHQGSPGKGWKWGGCSEDIEFGGMVSREFADARENRPDARSAMNRHNNEAGRQAIASHMHLKCKCHGLSGSCEVKTCWWSQPDFRAIGDFLKDKYDSASEMVVEKHRESRGWVETLRPRYTYFKVPTERDLVYYEASPNFCEPNPETGSFGTRDRTCNVSSHGIDGCDLLCCGRGHNARAERRREKCRCVFHWCCYVSCQECTRVYDVHTCK
CDX2 expression [1, 3]: increased

B3: activin A: human activin A, soluble cytokine activating the same receptor as nodal; 100 ng/ml (protein, UniProt P08476 311-426, looked up)
Inhibin beta A chain: GLECDGKVNICCKKQFFVSFKDIGWNDWIIAPSGYHANYCEGECPSHIAGTSGSSLSFHSTVINHYRMRGHSPFANLKSCCVPTKLRPMSMLYYDDGQNIIKKDIQNMIVEECGCS
modifications: Inhibin beta A chain
notes: 100 ng/ml
cells expressing the definitive endoderm markers CXCR4, c-KIT and EPCAM (hES cell line HES2): > 95%

B4: FGF8: fibroblast growth factor 8, agonist of FGF signaling (protein, UniProt P55075 23-233, looked up)
Fibroblast growth factor 8: QEGPGRGPALGRELASLFRAGREPQGVSQQHVREQSLVTDQLSRRLIRTYQLYSRTSGKHVQVLANKRINAMAEDGDPFAKLIVETDTFGSRVRVRGAETGLYICMNKKGKLIAKSNGKGKDCVFTEIVLENNYTALQNAKYEGWYMAFTRKGRPRKGSKTRQHQREVHFMKRLPRGHHTTEQSLRFEFLNYPPFTRSLRGSQRTWAPEPR
parathyroid-specific marker GCM2 (ventralized AFE; AFE ventralized with WKFBE in the absence of retinoic acid): induced
